Measured values reported in publication doi:10.1101/2025.10.30.685657.
Read-outs that look alike come from different tables or passages of the source.

Assays:
Assay in all cases: live-cell long-exposure single-molecule localization microscopy
[1] = biological target: T3SS injectisome of Yersinia enterocolitica (Yersinia enterocolitica (endogenous)) (UniProt Q01245)
[2] = biological target: T3SS injectisome of Yersinia enterocolitica (Yersinia enterocolitica (endogenous)) (UniProt Q01245); remark: listed apart in the source
[3] = biological target: T3SS injectisome of Yersinia enterocolitica (Yersinia enterocolitica (endogenous)) (UniProt Q01245); remark: listed apart in the source

Row | Substance | bound time constant tau (inverse of koff) [1] [s] | short bound time constant tau (short component of the bi-exponential fit) [1] [s] | weighted average bound time constant (short- and long-lived events) [1] [s] | bound time constant tau (inverse of koff) [2] [s] | long bound time constant tau (long component of the bi-exponential fit) [1] [s] | short bound time constant tau (short component of the bi-exponential fit) [3] [s] | weighted average bound time constant (short- and long-lived events) [3] [s]
1 | Halo-tagged SctL (from UniProt Q01253 1-223) (natural protein) | 3.4 | 3.1 | 4.4 | 3.9 | – | – | –
2 | Halo-tagged SctQ (from UniProt Q79NI3 1-307) (natural protein) | 2.5 | 4.5 | – | 4.1 | 23 | 2.1 | 2.7
